Experimental data reported in a protein production outcome set (Wang et al. 2014).

Assay: label from the status in PepcDB records

| Sequence | protein production |
| --- | --- |
| MKAADEPAYLTVGTDVSAKYRGAFCEAKIKTVKRLVKVKVLLKQDNTTQLVQDDQVKGPLRVGAIVETRTSDGSFQEAIISKLTDASWYTVVFDDGDERTLRRTSLCLKGERHFAESETLDQLPLTNPEHFGTPVIAKKTNRGRRSSLPVTEDEKEEESSEEEDEDKRRLNDELLGKVVSVVSATERTEWYPALVISPSCNDDITVKKDQCLVRSFIDSKFYSIARKDIKEVDILNLPESELSTKPGLQKASIFLKTRVVPDNWKMDISEILESSSSDDEDGPAEENDEEKEKEAKKTEEEVPEEELDPEERDNFLQQLYKFMEDRGTPINKPPVLGYKDLNLFKLFRLVYHQGGCDNIDSGAVWKQIYMDLGIPILNSAASYNVKTAYRKYLYGFEEYCRSANIQFRTVHHHEPKVKEEKKDLEESMEEALKLDQEMPLTEVKSEPEENIDSNSESEREEIELKSPRGRRRIARDVNSIKKEIEEEKTEDKLKDNDTENKDVDDDYETAEKKENELLLGRKNTPKQKEKKIKKQEDSDKDSDEEEEKSQEREETESKCDSEGEEDEEDMEPCLTGTKVKVKYGRGKTQKIYEASIKSTEIDDGEVLYLVHYYGWNVRYDEWVKADRIIWPLDKGGPKKKQKKKAKNKEDSEVDEKRDEERQKSKRGRPPLKSTLSSNMPYGLSKTANSEGKSDSCSSDSETEDALEKNLINEELSLKDELEKNENLNDDKLDEENPKISAHILKENDRTQMQPLETLKLEVGENEQIVQIFGNKMEKTEEVKKEAEKSPKGKGRRSKTKDLSLEIIKISSFGQNEAGSEPHIEAHSLELSSLDNKNFSSATEDEIDQCVKEKKLKRKILGQSSPEKKIRIENGMEMTNTVSQERTSDCIGSEGMKNLNFEQHFERENEGMPSLIAESNQCIQQLTSERFDSPAEETVNIPLKEDEDAMPLIGPETLVCHEVDLDDLDEKDKTSIEDVAVESSESNSLVSIPPALPPVVQHNFSVASPLTLSQDESRSVKSESDITIEVDSIAEESQEGLCERESANGFETNVASGTCSIIVQERESREKGQKRPSDGNSGLMAKKQKRTPKRTSAAAKNEKNGTGQSSDSEDLPVLDNSSKCTPVKHLNVSKPQKLARSPARISPHIKDGEKDKHREKHPNSSPRTYKWSFQLNELDNMNSTERISFLQEKLQEIRKYYMSLKSEVATIDRRRKRLKKKDREVSHAGASMSSASSDTGMSPSSSSPPQNVLAVECR | not failed |
| MKKLFTNTIFIQSNLERLSTILKSPQNLSKWVPDINSVSPKDDYFLISRSSSALNNFEKISVTSQDNSIIYTSTGGRLEYELHFDLTNKDDRTLVEQTLLVDETLTKLPLTLLAPIAKHAFHENLSSLERLIAISLEHHHHHH | failed |
| MGGLGYGCHPVPAVLDDEGNQLPDPGRRRTVIHDGSAADRQPGVQHRALADGRRQLARHRLLPGRARRVIAGQGCQRARPRSGEGRRRGVHGDLRHRIRHGPASLPDRGGRGRRAEALLVAEEHAMSRASRHRILAAMLSACLLSLLGGCTPLTVLAVLGGCKDGGSNGSSGGVTGSVTTGEVRDGMTIAQTKAWFNGSDGPDNVCQAYPDGQCTWWACMRGHKIGLDVGSYWGNGGDWAASATAAGWKTTRTDPVAGSIVSYPPGVADADTLYGHVAVVEAVDRTAGTVTISEMNGRGGLGIVNHRTHRINVGAVYILPNGSVSTNGSAGTDSTSSGSESSDSSSSSDSSSSSDPVEAAWTCSSSDSGSTDVVVDYDGDGTHATPEQARAIARKMIASYKDWGDGDYDALVWLWNKESGWQWNATNPSSGAYGIPQALPASKLASAGDDWKDNAATQIKWGLNYIAGRYGSPSAAKTFWLAHNWY | failed |
| MSEYLPIIIPSVFLVIPSIAILYMEKRFSTAVYTAVIGLLISFLSFTLFFSLGYYNYGVFNNALYLTKFGYFIAISSLIATILVVLGSSNDLKNWETGTSFLSLSLLTNIGVIYLAFAYNVLVIFASWAIASAATYVIAMLKKDYQSVEAGVKYLVMGLLSSSLMIIGLAFFVTAGNTLYLDPVISYQPLIVLSIIFFSIAFLFKIGAFPFQGWLPEVYSLADRFSVGFVSSVGKIVGIEPLLVILYYLIQDNSSSQVIYLTVVILFSIISVLSLIFGNISAFSRKDFAQILAYSSITQVGFMVIGIAMLPVNMNIAISGLMVYLLSYSIAQAGLFVSLSHVEKITGSSYFESFRGMSSGDRVLAFSMTILLLSLLGIPPILGFWAKLFVLESSFSQPWLTIIGFINSAISAGYYIPPIREIFREGQFKKVDSPERDSVIVAAVLSIALGIISPLIFGVLV | failed |
| MGWVTDWSAQAACRTTDPDELFVQGAAQNRAKAVCTGCPVRTECLADALDNRVEFGVWGGMTERERRALLRRRPTVTSWRRLLETARTEYERGVGIVPLDDDEVYENYAAVG | failed |
| MKIIAFGASTSSTSINKALATFTANLVDGAQVQVLNINDYSVPMFSEDLEKEIGQAEGAQAFLRDLAQADAFVISFAEHNGHYPAAYKNLFDWATRINRALFGDKPAVYLSTSPGPGGAKSVLAAATASAPFFGGNVKASVSVPSFYDNFDLEQGVVTKPEIVAELKAAVAKLSA | failed |
| MSLPRTLAFVSTLLLAAFCALPAQADSFIMRLLNKPVPGGVAVVDLGEEGPPPRAFYQGKPVLVVREEGRRWIAVVGIPLSTKPGPQKLEVRAATGNHEERFSVGSKHYREQRITLKNKRQVNPLPEDLKRIERELAEQTAAYRRFSPGLPSNLMLDKPVDGPLSSPFGLRRFFNGEERNPHSGLDFAVPAGTPIKAPAAGKVILIGDYFFNGKTVFVDHGQGFISMFCHLSKIDVKLGQQVPRGGVLGKVGATGRATGPHMHWNVSLNDARVDPAIFIGAFQPEGHHHHHH | not failed |
| MKHSGFQAKRLIQLALPVLIAQVTQTMMGFIDTVMAGRVSAVDMAAVAVGTSLWLPAILFVQGLLMAFTPLFAHHNGANNQKAIQPLAFQGAYLALIGGLGVMVFLASAPLVLSHMNLEPQLYNLTIGYIDGILWGAPAFVLYQVLRGCSEGISYTLPTMVIGFVGLAVNIPANYIFIYGHFGIPAMGGAGCGIATALVFWAMLIAMAIYMQFHKKFAALAPFSQFHRPDFATMKKMTKLGLPIAMALFFEVSLFAIIALLLAPLGATVVASHQIALNFSAIVFMLPLSIGIAVSIRIGYYLGRDRADISAVVAKVGLLLALSLALSTAILTVLFRFQIAELYNSDPEVVVLAGSLMLMAALYQLSDSVQVVAAGALRGYKDTRSAFYITLFSYWGIGMSLGYTLAYTDFIVPAMGAHGFWTGLIAGLTSAALLFFIRLRYIQKHRVHLSLIEGDSVHH | failed |
| MDFNDSAQAIILNVGGEKNINSLIHCSTRLRFTLNDFAKADLEKLKTVDGVLGAVIAGGQCQVIIGNDVVEMFDAVQALLGNSTQQNTARGPKQSWGKVVLDFIIGVFQPLVPAIAGGGILKAVLMLLAMFGWISDKSQTYQILNLVGGAPLYLLPILVAITTAQKLKVNPLVAVSTVGVLILPDLVAMLTKGTTLFGLHVTNVTYSSQVFPAILCVLFYALMERFFTKYSPKPIRIFFVPMMSMLITAPITLLFLGPLGYVVGEGFVSVILFLNTHLGWVATALLAGVLPFMVATGMHKPMIPYVVSTFSTVGKESLYLPASLAHNISESGTCFAITLRTKDTKLRAVALSAGISALFGITEPALYGVTLQHKRALISVITGGVIGGAYVGIAGLSGFTIVGPGLASLPMFVDKSNPANLIHALIGFGISFVVSFVIGLIIWKNDEEISSASDTGEATTTVVAEDLMAPVAGKILSLADVPDDVFSQGLIGQGIAVEPSEGSLIAPTDGTIEMVYETKHALGMRTDNGAELLFHIGLDTVQLNGKYFESHVQVGQHVQAGELLETFDVAKIKAAGYNPITMMVVTNQDSYTVAVDESNETLDNQSVMNIAKLGV | failed |
| MNPDFLGALLIGLVGAGHCMGMCGGIASLLSLGSSSSKSSPTIPLFYNLGRLSSYALIGALVGGAISGLSELSGLAQSLAWLRFVAAIFMILVALYIAKWWQGLLIVEKMGQHLWKFISPAGKSLLPLKKPIHALPFGFVWGWLPCGLVYSALTWSAVSGSAVNGGLIMLAFGLGTLPSMLAVGYGASHFQKLQKSLIFRNISALILIVYGAYTAAGAMQMLGFI | failed |
| MNGASLCNSVLLHSHSLSRFQSSSSSCSVYLISSARTTSKYISISHRIRQSFREVIEKRSNGFCSFAVNKRRSGDSVIVESDDDDEEDDEDWGEFDGEDEGEEEEEDEGEFLPMDKMKKWLEKKPRGFGLGKKYETLIEDKLLDEIEQSWKAQAANLNKLKNDPLKSQQLKRDDNLLKGTGETQIGFRVRVTNLPKKKNVHRDLKVAFKEVSGVLSITPAVSGNKKTKDPVCKGFAHVDFKTEIDANRFVKQFTGQSLAFGKVIKQIKCQVVEFTSDDSVSKEVYLDNGFKVQKLPYSGLEGDSSADVVEEEVLLGSGEESDDSEEEVDEREVEDDERNHISSSIESSPIEMTRDSNTKLKFEKQVVKREIREHEELETPLVSFQVNKSEEAAAETHLDDEQSEEAVAETLLNDELDGDDEEEVAEDNLEPLNSSLSSSEENRVDRIRRLEQKLLGKEKLLGGGVGFDKPEAKPARVEGKKKEKKKKTKILVKGQAKKGTKIEIPGSSKR | failed |
| MIKKIFALPVIEQISPVLSRRKLDELDLIVVDHPQVKASFALQGAHLLSWKPAGEEEVLWLSNNTPFKNGVAIRGGVPVCWPWFGPAAQQGLPAHGFARNLPWTLKSHHEDADGVALTFELTQSEETKKFWPHDFTLLAHFRVGKTCEIDLESHGEFETTSALHTYFNVGDIAKVSVSGLGDRFIDKVNDAKENVLTDGIQTFPDRTDRVYLNPQDCSVINDEALNRIIAVGHQHHLNVVGWNPGPALSISMGDMPDDGYKTFVCVETAYASETQKVTKEKPAHLAQSIRVAKR | not failed |
| TEDTVIKVSVLRGPSVIAFADWLENPPIIDNKKVQVKVVDSPDLAQALLIKQETDIAVLPMINAANLYNKGIKIKLAGCPIWGTLYLVEKTPLKEPALYVFGNGTTPDILTRYYLGRQRLDYPLNYAFNTAGEITQGILAGKVNRAVLGEPFLSIALRKDSSLRITADLNHLTDNDTLGFAQTAVVYTPTMEKYRIAFEDALRASCQKAVRYPKETIHSLEEHGIFAQGALTPKSIERCKIYYLSAIEAKDAVMGFLRLIEQYEPKAVGGRLPDAGFIPEKQ | not failed |
| MKGRLLQRLRQLSISNSLRGAFLTGALLTLIVSMVSLYSWHEQSSQVRYSLDEYFPRIHSAFLIEGNLNLAVDQLNEFLLAPNTTVRLQLRTQIIQHLDKIERLSQGLQLAERRQLAVILQDSRTLLAELDNALYNMFLVREKVSELSARLTGSSDDFTTELNSLVQDFTWQQGTLLDQIEANQGDAAQYLQRSREVQNEQQQVYTLAEIENQIVDDLRDRLNELKSGNNDGMLVETHIRYLENLKKTADENIRALDDWPSTITLRQTIDELLEIGMVKNKMPDTMRDYVAAQKALLDASRAREATLGRFRTLLEAQLGSSHQQMQTFNQRLEQIVRVSGGLILVATLLALLLAWGLNHYFIRSRLVKRFTALNQAVVQIGLGRTDSTIPVYGRDELGRIARLLRHTLGQLNMQRRQLEQEVAERKEIEADLRAMQDELIQTAKLAVVGQTMTTLAHEINQPLNALSMYLFTAGRAIEQGQSGQARNTLRKAEGLINRIDAIIRSLRQFYRRAELETPLYPVDARQTFVAAWELLAMRHQSRQGALSLPTDTVWVSGDEVRIQQVLVNVLANALDACSHDAVIAVTWQTQGEALEVYIADNGPGWPVALLPSLLKPFTTSKAVGLGIGLSISVSLMAQMKGDLRLASTLTRNACVVLQFSVTDVDDVE | failed |
| MGRSAVYTILTTGYVGSTGPGVAATVSYVADGGRHVVFDPGMVASRDHILGPLAELGLGPDDITDVVLSHHHPDNTMNVGLFGRATVHDHKVEYLGDQWRNRDAEGYELTPSLRLIRTPGHSLEDITLLAGTDTGVVAFAGDLWWHSDGPADDPVAPDREVLRASRLRVLAAADLIVPGHGSPLEHHHHHH | failed |
| MLVSIILVNYNGADILPDCLNSIDKFISKDNCEILLVDNASQDNSYELVAQDFPDVKIVRLPKNYGFGAGNNAGAKIAKGKFLLLLNTDTILTTNILPHLIDLMRENPDVGIIGTKLVFPDETFQISFAYTIGIKGEYKSRKLHEYAEDKSKLNSLEQEFNTIKEVDIVVGAALFIRADLFHSVGGFDEKFFIYFEDADLCRRVQNQGYKILYTPQVSLIHIRGHSMKKNLEHHHHHH | failed |
| MSRSVLQPSQQKLAEKLTILNDRGVGMLTRLYNIKKACGDPKAKPSYLIDKNLESAVKFIVRKFPAVE | failed |
